Consider 1 substance from paper PMC3198426.

Bounds are passed on as bounds.

The target in the test is HAVI-Fluc-bJun (basic leucine zipper region of Jun, 225-334) (human). Briefly: pull-down; DLR-PD (dual luciferase reporter pull-down): both proteins co-expressed in HEK293; lysate in passive lysis buffer on Streptavidin MagneSphere Paramagnetic Particles in PBS, 30 m to 1 h, room temperature; two washes PBS with 1% Nonidet P 40, one with PBS; the biotinylated HAVI-tagged protein is held, Fluc and Rluc activity read on the beads; in some samples eYFP-MAVS or other activators (IRF3) or HCV NS3/4A (MAVS) co-expressed.
Sequence of HAVI-Fluc-bJun (basic leucine zipper region of Jun, 225-334) (human) (P05412 whole entry): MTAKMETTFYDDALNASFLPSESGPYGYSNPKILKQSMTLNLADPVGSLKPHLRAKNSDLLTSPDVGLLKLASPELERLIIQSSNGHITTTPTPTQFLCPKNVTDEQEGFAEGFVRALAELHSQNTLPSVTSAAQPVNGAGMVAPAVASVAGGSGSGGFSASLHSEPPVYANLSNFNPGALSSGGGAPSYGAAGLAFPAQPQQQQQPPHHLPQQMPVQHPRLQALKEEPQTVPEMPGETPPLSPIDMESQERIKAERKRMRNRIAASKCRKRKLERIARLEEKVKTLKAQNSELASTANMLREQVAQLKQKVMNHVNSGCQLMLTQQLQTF

Sequence of Rluc-bFos-Flag (basic leucine zipper region of Fos, 118-220) (P01100 other isoform, or with tags, fused parts or gaps): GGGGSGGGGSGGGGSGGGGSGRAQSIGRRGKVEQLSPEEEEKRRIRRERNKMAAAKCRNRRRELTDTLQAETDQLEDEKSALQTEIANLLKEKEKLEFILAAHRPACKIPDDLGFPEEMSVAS

As to “Rluc-bFos-Flag (basic leucine zipper region of Fos, 118-220) (from UniProt P01100 118-220) (domain or fragment)”, the activity ratio of Rluc/Fluc on the beads (Rluc/Fluc activity ratio) worked out at 1.7, the fold of the percentage of Rluc on beads over the three negative controls was > 80 fold, the molar ratio of Rluc-bFos to HAVI-Fluc-bJun binding to the beads worked out at 0.1 molar ratio and the percentage of Rluc on beads to lysate is 4%.
